“And” between values parts separate entries of the source, which are not always exact repeats. Identical values can stand only once. One block for each binder: values may come before it.
Tests used:
[1] = target: T1, NRP1 (Neuropilin-1 Npn-1-His tag) (UniProt O14786-2 22-644); test: Direct Bind ELISA, antigen on plate; C-terminal VD
T1 construct: Bought reagent

IGF2 (IGF-2) [2] = target: T2, IGF2 (IGF-2) (UniProt P01344 25-91); test: Direct Bind ELISA, antigen on plate; N-terminal VD; second value of IGF1/IGF2 cell
T2 construct: Bought reagent
Description: (§1) Enzyme Linked Immunosorbent Assays to screen for antibodies that bind a desired target antigen were performed as follows. […] Plates were washed four times with PBS containing 0.02% Tween 20. Plates were blocked by the addition of 300 μL/well blocking solution (non-fat dry milk powder, various retail suppliers, diluted to 2% in PBS) for ½ hour at room temperature. Plates were washed four times after blocking with PBS containing 0.02% Tween 20.
(§2) One hundred microliters of antibody or DVD-Ig preparations diluted in blocking solution as described above was added to the desired target antigen plate or desired target antigen/FC fusion plate or the anti-polyHistidine antibody/His tagged desired target antigen plate prepared as described above and incubated for 1 hour at room temperature. Wells are washed four times with PBS containing 0.02% Tween 20.
(§3) Plates were washed 4 times with PBS containing 0.02% Tween 20.

IGF1 (IGF-I) [3] = target: T3, IGF1 (IGF-I) (UniProt P05019 49-118); test: Direct Bind ELISA, antigen on plate; N-terminal VD; first value of IGF1/IGF2 cell
T3 construct: Bought reagent
Description: as §1, §2, §3

[4] = target: T1, NRP1 (Neuropilin-1 Npn-1-His tag); test: Direct Bind ELISA, antigen on plate; N-terminal VD
Description: as §1
Alternatively, one hundred microliters per well of 10 μg/ml of Histidine (His) tagged desired target antigen (R&D Systems, Minneapolis, Minn.) was added to ELISA plates coated with monoclonal mouse anti-polyHistidine antibody as described above and incubated for 1 hour at room temperature. Wells were washed four times with PBS containing 0.02% Tween 20.
as §2

biotinylated VEGF = biotinylated VEGF (UniProt P15692-4 27-191, limits assumed, biotinylated); test: VEGF capture ELISA, antibody captured by anti-human Fc, biotinylated VEGF
[5] = target: T1, NRP1 (Neuropilin-1 Npn-1-His tag); test: Direct Bind ELISA, antigen on plate
[6] = target: T4, human DLL4 extracellular domain (human, UniProt Q9NR61 27-529, biotin label in the Notch-1 competition ELISA (sites not given)); test: competition ELISA: 14 nM biotin-labelled human DLL4 ECD pre-mixed with antibody, then on coated human Notch-1 (competitor Notch-1)
T4 construct: extracellular domain; also called biotin labeled human DLL4 extracellular domain

[7] = target: T5, human DLL4 on 293G-human DLL4 cells (human, UniProt Q9NR61 27-685); test: FACS: inhibition of Notch1 binding to 293G-human DLL4 cells (competitor Notch1)
T5 construct: whole, on cells; no method paragraph describes this FACS assay

[8] = target: T4, human DLL4 extracellular domain; test: cell-based or functional assay
[9] = target: T4, human DLL4 extracellular domain; test: competition ELISA: biotin-labelled human DLL4 ECD pre-mixed with antibody, then on coated human Notch-1 (competitor Notch-1)
Description: Plates were then washed once with wash buffer (PBS, 0.05% Tween 20) and blocked with 200 μl/well blocking buffer (D-PBS, 1% BSA, 1 mM CaCl₂, 0.05% Tween 20) for 1 hour at 25° C.

[10] = target: T6, biotin-labeled human DLL4 extracellular domain (human, UniProt Q9NR61 27-529, biotin-labeled); test: capture ELISA, antibody captured by anti-human Fc, biotin-labeled human DLL4 ECD
T6 construct: extracellular domain
Description: ELISA plates were washed three times with wash buffer (PBS, 0.05% Tween 20) and then blocked with 200 μl/well blocking buffer (D-PBS, 1% BSA, 1 mM CaCl₂, 0.05% Tween 20) for 1 hour at 25° C.

[11] = target: T6, biotin-labeled human DLL4 extracellular …; test: DLL4 capture ELISA, antibody captured by anti-human Fc, biotin-labeled human DLL4 ECD
[12] = target: T7, CD40/FC (CD40 ECD/FC chimera-His tag) (UniProt P25942 21-193); test: Direct Bind ELISA, C-terminal variable domain
T7 construct: extracellular domain; bought reagent; not shown: IgG FC domain and His tag of the bought chimera

IGF2 (IGF-2) [13] = target: T2, IGF2 (IGF-2); test: Direct Bind ELISA, antigen on plate; C-terminal VD; second value of IGF1/IGF2 cell
Description: as §1, §2, §3

IGF1 (IGF-I) [14] = target: T3, IGF1 (IGF-I); test: Direct Bind ELISA, antigen on plate; C-terminal VD; first value of IGF1/IGF2 cell
Description: as §1, §2, §3

DLL4 (DLL4 ECD/His tag) = target: T8, DLL4 (DLL4 ECD/His tag) (UniProt Q9NR61 27-529, limits assumed); test: Direct Bind ELISA, antigen on plate
T8 construct: extracellular domain; Bought reagent

PlGF (Placental GF) = target: T9, PlGF (Placental GF) (UniProt P49763-2 21-149, limits assumed); test: Direct Bind ELISA, antigen on plate
T9 construct: Bought reagent
T9 sequence (looked up): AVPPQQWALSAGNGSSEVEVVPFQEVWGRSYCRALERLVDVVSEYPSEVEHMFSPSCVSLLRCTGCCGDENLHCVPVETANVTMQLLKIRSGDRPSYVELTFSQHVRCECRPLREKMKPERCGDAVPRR

T7 sequence (P25942 21-193, change not shown): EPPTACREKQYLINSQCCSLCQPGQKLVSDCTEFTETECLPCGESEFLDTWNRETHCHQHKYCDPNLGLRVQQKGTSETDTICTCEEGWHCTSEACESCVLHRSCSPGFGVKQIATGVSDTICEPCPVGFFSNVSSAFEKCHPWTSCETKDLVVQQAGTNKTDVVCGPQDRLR
biotinylated VEGF, sequence (P15692 other isoform, or with tags, fused parts or gaps limits assumed): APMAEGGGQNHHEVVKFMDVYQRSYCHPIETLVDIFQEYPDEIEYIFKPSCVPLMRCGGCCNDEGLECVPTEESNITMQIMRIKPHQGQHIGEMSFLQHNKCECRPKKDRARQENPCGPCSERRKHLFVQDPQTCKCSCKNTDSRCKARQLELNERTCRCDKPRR

B1: DVD049 (VEGF (seq. 1) and NRP1 (seq. 1) DVD-Ig) (bispecific antibody, IgG1)
VH: EVQLVESGGGLVQPGGSLRLSCAASGYTFTNYGMNWVRQAPGKGLEWVGWINTYTGEPTYAADFKRRFTFSLDTSKSTAYLQMNSLRAEDTAVYYCAKYPHYYGSSHWYFDVWGQGTLVTVSSASTKGPEVQLVESGGGLVQPGGSLRLSCAASGFSFSSEPISWVRQAPGKGLEWVSSITGKNGYTYYADSVKGRFTISADTSKNTAYLQMNSLRAEDTAVYYCARWGKKVYGMDVWGQGTLVTVSS
VL: DIQMTQSPSSLSASVGDRVTITCSASQDISNYLNWYQQKPGKAPKVLIYFTSSLHSGVPSRFSGSGSGTDFTLTISSLQPEDFATYYCQQYSTVPWTFGQGTKVEIKRTVAAPDIQMTQSPSSLSASVGDRVTITCRASQSISSYLAWYQQKPGKAPKLLIYGASSRASGVPSRFSGSGSGTDFTLTISSLQPEDFATYYCQQYMSVPITFGQGTKVEIKR
notes: HC vector V1 (wild-type hIgG1 constant), LC vector V2 (kappa constant); also called DVD049H; DVD049L
EC50 [1]: 0.5 nM

B2: DVD042 (IGF1,2 and VEGF (seq. 1) DVD-Ig) (bispecific antibody, IgG1)
VH: QVQLVQSGAEVKKPGASVKVSCKASGYTFTSYDINWVRQATGQGLEWMGWMNPNSGNTGYAQKFQGRVTMTRNTSISTAYMELSSLRSEDTAVYYCARDPYYYYYGMDVWGQGTTVTVSSASTKGPEVQLVESGGGLVQPGGSLRLSCAASGYTFTNYGMNWVRQAPGKGLEWVGWINTYTGEPTYAADFKRRFTFSLDTSKSTAYLQMNSLRAEDTAVYYCAKYPHYYGSSHWYFDVWGQGTLVTVSS
VL: QSVLTQPPSVSAAPGQKVTISCSGSSSNIENNHVSWYQQLPGTAPKLLIYDNNKRPSGIPDRFSGSKSGTSATLGITGLQTGDEADYYCETWDTSLSAGRVFGGGTKLTVLGQPKAAPDIQMTQSPSSLSASVGDRVTITCSASQDISNYLNWYQQKPGKAPKVLIYFTSSLHSGVPSRFSGSGSGTDFTLTISSLQPEDFATYYCQQYSTVPWTFGQGTKVEIKR
notes: HC vector V1 (wild-type hIgG1 constant), LC vector V4 (lambda signal peptide, kappa constant); also called DVD042H; DVD042L
EC50 (IGF2 (IGF-2) [2]): 17.6 nM
EC50 (IGF1 (IGF-I) [3]): 2.54 nM

B3: DVD050 (NRP1 (seq. 1) and VEGF (seq. 1) DVD-Ig) (bispecific antibody, IgG1)
VH: EVQLVESGGGLVQPGGSLRLSCAASGFSFSSEPISWVRQAPGKGLEWVSSITGKNGYTYYADSVKGRFTISADTSKNTAYLQMNSLRAEDTAVYYCARWGKKVYGMDVWGQGTLVTVSSASTKGPEVQLVESGGGLVQPGGSLRLSCAASGYTFTNYGMNWVRQAPGKGLEWVGWINTYTGEPTYAADFKRRFTFSLDTSKSTAYLQMNSLRAEDTAVYYCAKYPHYYGSSHWYFDVWGQGTLVTVSS
VL: DIQMTQSPSSLSASVGDRVTITCRASQSISSYLAWYQQKPGKAPKLLIYGASSRASGVPSRFSGSGSGTDFTLTISSLQPEDFATYYCQQYMSVPITFGQGTKVEIKRTVAAPDIQMTQSPSSLSASVGDRVTITCSASQDISNYLNWYQQKPGKAPKVLIYFTSSLHSGVPSRFSGSGSGTDFTLTISSLQPEDFATYYCQQYSTVPWTFGQGTKVEIKR
notes: HC vector V1 (wild-type hIgG1 constant), LC vector V2 (kappa constant); also called DVD050H; DVD050L
EC50 [4]: 0.46 nM

B4: AB071 (antibody, human IgG1, kappa, L234A L235A, V domains shown)
VH: EVQLVESGGGLVQPGGSLRLSCAASGFTINASWIHWVRQAPGKGLEWVGAIYPYSGYTNYADSVKGRFTISADTSKNTAYLQMNSLRAEDTAVYYCARWGHSTSPWAMDYWGQGTLVTVSS
VL: DIQMTQSPSSLSASVGDRVTITCRASQVIRRSLAWYQQKPGKAPKLLIYAASNLASGVPSRFSGSGSGTDFTLTISSLQPEDFATYYCQQSNTSPLTFGQGTKVEIKR
EC50 (biotinylated VEGF): 0.38 nM

B5: AB016 (anti-NRP1 (seq. 1) parent antibody) (antibody, IgG1, V domains shown)
VH: EVQLVESGGGLVQPGGSLRLSCAASGFSFSSEPISWVRQAPGKGLEWVSSITGKNGYTYYADSVKGRFTISADTSKNTAYLQMNSLRAEDTAVYYCARWGKKVYGMDVWGQGTLVTVSS
VL: DIQMTQSPSSLSASVGDRVTITCRASQSISSYLAWYQQKPGKAPKLLIYGASSRASGVPSRFSGSGSGTDFTLTISSLQPEDFATYYCQQYMSVPITFGQGTKVEIKR
notes: HC vector V1 (wild-type hIgG1 constant), LC vector V2 (kappa constant); also called AB016VH; AB016VL
EC50 [5]: 0.58 nM

B6: AB015 (anti-DLL-4 (seq. 1) parent antibody) (antibody, human IgG1, kappa)
heavy: not shown
light: DIQMTQSPSSLSASVGDRVTITCRASQDVSTAVAWYQQKPGKAPKLLIYSASFLYSGVPSRFSGSGSGTDFTLTISSLQPEDFATTYYCQQSYTGTVTFGQGTKVEIKRTVAAPSVFIFPPSDEQLKSGTASVVCLLNNFYPREAKVQWKVDNALQSGNSQESVTEQDSKDSTYSLSSTLTLSKADYEKHKVYACEVTHQGLSSPVTKSFNRGEC
notes: also called AB015VH/AB015VL
IC50 [6]: 2.47 nM and 2.69 nM and 2.53 nM and 2.74 nM
IC50 [7]: 2.3 nM
Ref. Ab Inhibition of sFlt1 (IC50, nM) [8]: 0.34 nM
IC50 [9]: 0.37 nM and 0.4 nM

B7: AB015 (antibody, human IgG1, kappa)
heavy: not shown
light: B6 light
EC50 [10]: 0.03 nM
EC50 [11]: 0.15 nM and 0.18 nM and 0.14 nM

B11: AB047 (anti-PLGF (seq. 1) parent antibody) (antibody, IgG1, V domains shown)
VH: QVQLQQSGAELVKPGASVKISCKASGYTFTDYYINWVKLAPGQGLEWIGWIYPGSGNTKYNEKFKGKATLTIDTSSSTAYMQLSSLTSEDTAVYFCVRDSPFFDYWGQGTLLTVSS
VL: DIVLTQSPDSLAVSLGERVTMNCKSSQSLLNSGMRKSFLAWYQQKPGQSPKLLIYWASTRESGVPDRFTGSGSGTDFTLTISSVQAEDVAVYYCKQSYHLFTFGSGTKLEIKR
notes: HC vector V1 (wild-type hIgG1 constant), LC vector V2 (kappa constant); also called AB047VH; AB047VL
EC50 (PlGF (Placental GF)): 0.2 nM

Other lines, results leading:

binding result [12]: binds
B8: DVD009 DVD-Ig (bispecific antibody, human IgG1, kappa)
heavy: not shown
light: QIVLSQSPAILSPSPGEKVTMTCRASSSVSYIHWFQQKPGSSPKPWIYATSNLASGVPVRFSGSGSGTSYSLTISRVEAEDAATYYCQQWTSNPPTFGGGTKLEIKRTVAAPDIVMTQSPLSLTVTPGEPASISCRSSQSLLYSNGYNYLDWYLQKPGQSPQVLISLGSNRASGVPDRFSGSGSGTDFTLKISRVEAEDVGVYYCMQARQTPFTFGPGTKVDIRRTVAAPSVFIFPPSDEQLKSGTASVVCLLNNFYPREAKVQWKVDNALQSGNSQESVTEQDSKDSTYSLSSTLTLSKADYEKHKVYACEVTHQGLSSPVTKSFNRGEC
notes: outer AB001 (CD-20), inner AB009 (CD-40); HC/LC linkers short/short; also called DVD009H; DVD009L

EC50 (IGF2 (IGF-2) [13]): 7340 nM
EC50 (IGF1 (IGF-I) [14]): 381 nM
B9: DVD041 (VEGF (seq. 1) and IGF1,2 DVD-Ig) (bispecific antibody, IgG1)
VH: EVQLVESGGGLVQPGGSLRLSCAASGYTFTNYGMNWVRQAPGKGLEWVGWINTYTGEPTYAADFKRRFTFSLDTSKSTAYLQMNSLRAEDTAVYYCAKYPHYYGSSHWYFDVWGQGTLVTVSSASTKGPQVQLVQSGAEVKKPGASVKVSCKASGYTFTSYDINWVRQATGQGLEWMGWMNPNSGNTGYAQKFQGRVTMTRNTSISTAYMELSSLRSEDTAVYYCARDPYYYYYGMDVWGQGTTVTVSS
VL: DIQMTQSPSSLSASVGDRVTITCSASQDISNYLNWYQQKPGKAPKVLIYFTSSLHSGVPSRFSGSGSGTDFTLTISSLQPEDFATYYCQQYSTVPWTFGQGTKVEIKRTVAAPQSVLTQPPSVSAAPGQKVTISCSGSSSNIENNHVSWYQQLPGTAPKLLIYDNNKRPSGIPDRFSGSKSGTSATLGITGLQTGDEADYYCETWDTSLSAGRVFGGGTKLTVLG
notes: HC vector V1 (wild-type hIgG1 constant), LC vector V5 (kappa signal peptide, lambda constant); also called DVD041H; DVD041L

EC50 (DLL4 (DLL4 ECD/His tag)): 0.31 nM
B10: AB015 (anti-DLL-4 (seq. 1) parent antibody) (antibody, IgG1, V domains shown)
VH: EVQLVESGGGLVQPGGSLRLSCAASGFTFTDNWISWVRQAPGKGLEWVGYISPNSGFTYYADSVKGRFTISADTSKNTAYLQMNSLRAEDTAVYYCARDNFGGYFDYWGQGTLVTVSS
VL: DIQMTQSPSSLSASVGDRVTITCRASQDVSTAVAWYQQKPGKAPKLLIYSASFLYSGVPSRFSGSGSGTDFTLTISSLQPEDFATTYYCQQSYTGTVTFGQGTKVEIKR
notes: HC vector V1 (wild-type hIgG1 constant), LC vector V2 (kappa constant); also called AB015VH; AB015VL

— US20100260668A1 (published 2010)
